The text below walks through data of paper PMC12000561.

The test system of this data set is MUTYH WT (MBP fusion) (Homo sapiens). The data set can be described thus: EMSA. To be noted: EMSA: DNA mix 40 mM Tris pH 7.6, 2 mM EDTA, 200 mM NaCl (printed '200 M'), 20% glycerol, 0.2 mg/ml BSA, 2 mM DTT, 20 pM duplex, mixed 1:1 with enzyme in 20 mM …. For orientation: Mobility shift assays separate free from complexed probe on a gel.

The term Kd denotes the concentration at which binding is half-saturated. On to Duplex 2 THF:OG (product analog), 30 bp, for which the equilibrium dissociation constant (Kd) (upper limit estimate, THF (abasic analog) opposite 8-oxoguanine) was < 10 pM.

Regarding “Duplex 2 fA:OG (substrate analog), 30 bp”, the equilibrium dissociation constant (Kd) (table unit header missing, 2'-fluoro-2'-deoxyadenosine opposite 8-oxoguanine) came out at 32 pM.
